T1: human LAG-3 expressed on cells (human, UniProt P18627 23-525)
T1 sequence: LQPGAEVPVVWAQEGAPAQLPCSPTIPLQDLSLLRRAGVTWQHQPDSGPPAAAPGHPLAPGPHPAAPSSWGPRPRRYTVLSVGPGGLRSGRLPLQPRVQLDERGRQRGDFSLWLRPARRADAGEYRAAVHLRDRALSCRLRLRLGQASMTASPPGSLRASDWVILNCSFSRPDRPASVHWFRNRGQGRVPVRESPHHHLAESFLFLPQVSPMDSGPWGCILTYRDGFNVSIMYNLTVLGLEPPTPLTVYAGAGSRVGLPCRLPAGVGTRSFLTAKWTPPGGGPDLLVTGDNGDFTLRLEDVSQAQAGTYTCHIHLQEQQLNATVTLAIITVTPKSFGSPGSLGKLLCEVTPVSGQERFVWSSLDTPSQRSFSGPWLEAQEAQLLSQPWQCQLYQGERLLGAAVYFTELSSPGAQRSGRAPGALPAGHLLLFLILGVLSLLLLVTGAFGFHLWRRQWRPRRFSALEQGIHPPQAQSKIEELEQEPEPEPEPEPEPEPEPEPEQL

T2: recombinant human LAG-3-Fc (human, UniProt P18627 23-450)
T2 construct: also called human LAG-3 (R&D Systems cat no. 2319-L3); LAG3 antigen
T2 sequence: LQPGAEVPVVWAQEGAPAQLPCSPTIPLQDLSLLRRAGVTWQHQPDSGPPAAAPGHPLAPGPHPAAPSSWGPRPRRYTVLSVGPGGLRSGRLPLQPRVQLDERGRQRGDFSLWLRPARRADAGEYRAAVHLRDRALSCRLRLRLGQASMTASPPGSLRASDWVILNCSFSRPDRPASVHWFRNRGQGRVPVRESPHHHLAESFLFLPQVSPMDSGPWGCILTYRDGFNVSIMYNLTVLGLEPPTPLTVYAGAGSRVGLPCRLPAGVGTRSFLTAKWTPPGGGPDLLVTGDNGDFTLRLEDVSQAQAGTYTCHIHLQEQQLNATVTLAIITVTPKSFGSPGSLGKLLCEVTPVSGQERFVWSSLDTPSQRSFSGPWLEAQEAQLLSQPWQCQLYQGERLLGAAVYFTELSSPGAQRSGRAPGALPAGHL


target: T3, human PD-1 expressed on cells (human, UniProt Q15116 25-288); assay: cell-based or functional assay
T3 sequence (Q15116 25-288 limits assumed): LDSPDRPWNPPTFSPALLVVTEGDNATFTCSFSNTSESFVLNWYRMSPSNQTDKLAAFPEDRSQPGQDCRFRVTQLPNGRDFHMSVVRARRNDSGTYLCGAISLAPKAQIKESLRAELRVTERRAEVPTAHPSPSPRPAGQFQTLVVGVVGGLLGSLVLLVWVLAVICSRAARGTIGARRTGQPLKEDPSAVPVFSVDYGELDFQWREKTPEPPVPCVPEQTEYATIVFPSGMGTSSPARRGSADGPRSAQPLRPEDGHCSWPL

Binder	potency in the PD-1:PD-L1 NFAT-luciferase reporter assay, fold lower than monoclonal antibodies [fold]
2.77-6GS-1.1-6GS-1.1 (bispecific antibody) EVQLVESGGGLVKPGGSLRLSCAASGFTFSDSSMTWMRQAPGKGLEWVSYISSGGGVKFYTDSVKGRFTISRDNAKNSLYLQMNSLRAEDTAVYYCAREAPLRLGESPHDAFDISGQGTMVTVSSGGGGSGGGGSGGGGSGGGGSGGGGSGGGGSEVQLVESGGGVVRPGGSLRLSCSASGFTFDDYGMSWVRQAPGKGLEWVSGIHWNGGNSGYADSVKGRFTISRDNAKNSLYLQMNSLRAEDTALYYCARIPREDCSSASCYTDAIDFWGPGTMVTVSSGGGGSGGGGSGGGGSGGGGSGGGGSGGGGSEVQLVESGGGVVRPGGSLRLSCSASGFTFDDYGMSWVRQAPGKGLEWVSGIHWNGGNSGYADSVKGRFTISRDNAKNSLYLQMNSLRAEDTALYYCARIPREDCSSASCYTDAIDFWGPGTMVTVSSAAAHHHHHH	> 30

target: T3, human PD-1 expressed on cells; assay: cell-based or functional assay; remark: another data set of the same source

Binder	EC50 (M), NFAT-Luciferase Reporter Gene assay (PD-1:PD-L1) [M]
VH 2.77 (VHH) VHH: EVQLVESGGGLVKPGGSLRLSCAASGFTFSDSSMTWMRQAPGKGLEWVSYISSGGGVKFYTDSVKGRFTISRDNAKNSLYLQMNSLRAEDTAVYYCAREAPLRLGESPHDAFDISGQGTMVTVSS	9.7e-09
2.77-6GS-1.1-6GS-1.1 (bispecific antibody) EVQLVESGGGLVKPGGSLRLSCAASGFTFSDSSMTWMRQAPGKGLEWVSYISSGGGVKFYTDSVKGRFTISRDNAKNSLYLQMNSLRAEDTAVYYCAREAPLRLGESPHDAFDISGQGTMVTVSSGGGGSGGGGSGGGGSGGGGSGGGGSGGGGSEVQLVESGGGVVRPGGSLRLSCSASGFTFDDYGMSWVRQAPGKGLEWVSGIHWNGGNSGYADSVKGRFTISRDNAKNSLYLQMNSLRAEDTALYYCARIPREDCSSASCYTDAIDFWGPGTMVTVSSGGGGSGGGGSGGGGSGGGGSGGGGSGGGGSEVQLVESGGGVVRPGGSLRLSCSASGFTFDDYGMSWVRQAPGKGLEWVSGIHWNGGNSGYADSVKGRFTISRDNAKNSLYLQMNSLRAEDTALYYCARIPREDCSSASCYTDAIDFWGPGTMVTVSSAAAHHHHHH	3.7e-08

target: T1, human LAG-3 expressed on cells; assay: cell-based or functional assay

Binder	EC50 (M), NFAT-Luciferase Reporter Gene assay (LAG-3:MHCII) [M]
2.77-6GS-1.1-6GS-1.1 (bispecific antibody) EVQLVESGGGLVKPGGSLRLSCAASGFTFSDSSMTWMRQAPGKGLEWVSYISSGGGVKFYTDSVKGRFTISRDNAKNSLYLQMNSLRAEDTAVYYCAREAPLRLGESPHDAFDISGQGTMVTVSSGGGGSGGGGSGGGGSGGGGSGGGGSGGGGSEVQLVESGGGVVRPGGSLRLSCSASGFTFDDYGMSWVRQAPGKGLEWVSGIHWNGGNSGYADSVKGRFTISRDNAKNSLYLQMNSLRAEDTALYYCARIPREDCSSASCYTDAIDFWGPGTMVTVSSGGGGSGGGGSGGGGSGGGGSGGGGSGGGGSEVQLVESGGGVVRPGGSLRLSCSASGFTFDDYGMSWVRQAPGKGLEWVSGIHWNGGNSGYADSVKGRFTISRDNAKNSLYLQMNSLRAEDTALYYCARIPREDCSSASCYTDAIDFWGPGTMVTVSSAAAHHHHHH	6.6e-09
VH1.1-4GS-VH1.1-His6 (VHH) EVQLVESGGGVVRPGGSLRLSCSASGFTFDDYGMSWVRQAPGKGLEWVSGIHWNGGNSGYADSVKGRFTISRDNAKNSLYLQMNSLRAEDTALYYCARIPREDCSSASCYTDAIDFWGPGTMVTVSSGGGGSGGGGSGGGGSGGGGSEVQLVESGGGVVRPGGSLRLSCSASGFTFDDYGMSWVRQAPGKGLEWVSGIHWNGGNSGYADSVKGRFTISRDNAKNSLYLQMNSLRAEDTALYYCARIPREDCSSASCYTDAIDFWGPGTMVTVSSAAAHHHHHH	1.4e-09
VH1.1-8GS-VH1.1-His6 (VHH) EVQLVESGGGVVRPGGSLRLSCSASGFTFDDYGMSWVRQAPGKGLEWVSGIHWNGGNSGYADSVKGRFTISRDNAKNSLYLQMNSLRAEDTALYYCARIPREDCSSASCYTDAIDFWGPGTMVTVSSGGGGSGGGGSGGGGSGGGGSGGGGSGGGGSGGGGSGGGGSEVQLVESGGGVVRPGGSLRLSCSASGFTFDDYGMSWVRQAPGKGLEWVSGIHWNGGNSGYADSVKGRFTISRDNAKNSLYLQMNSLRAEDTALYYCARIPREDCSSASCYTDAIDFWGPGTMVTVSSAAAHHHHHH	5.4e-09
VH1.1-12GS-VH1.1-His6 (VHH) EVQLVESGGGVVRPGGSLRLSCSASGFTFDDYGMSWVRQAPGKGLEWVSGIHWNGGNSGYADSVKGRFTISRDNAKNSLYLQMNSLRAEDTALYYCARIPREDCSSASCYTDAIDFWGPGTMVTVSSGGGGSGGGGSGGGGSGGGGSGGGGSGGGGSGGGGSGGGGSGGGGSGGGGSGGGGSGGGGSEVQLVESGGGVVRPGGSLRLSCSASGFTFDDYGMSWVRQAPGKGLEWVSGIHWNGGNSGYADSVKGRFTISRDNAKNSLYLQMNSLRAEDTALYYCARIPREDCSSASCYTDAIDFWGPGTMVTVSSAAAHHHHHH	3.3e-09

target: T4, Rhesus monkey LAG-3 (used as cynomolgus LAG-3) (Rhesus monkey (called cynomolgus in the …)); assay: BLI (Octet); cynomolgus LAG-3 immobilised on ARG2 sensors, 1:1 fit
T4 construct: extracellular domain
Protocol: (§1) Binding kinetics for multi-valent and bispecific VH were also measured in real-time bio-layer interferometer based biosensor Octet (ForteBio). […] All the binding studies were performed in HBS-ET Octet kinetics buffer. Biosensors were washed in Octet kinetics buffer in between different steps. […] The contact time for each of the association steps was 150 seconds and the dissociation step was 400 seconds. […] To compare the constructs, kinetic association (kₐ) and dissociation (kd) rate constants were determined by processing and fitting the data to a 1:1 binding model using ForteBio Analysis software.

Binder	Kd [nM]	koff [s⁻¹]	kon [M⁻¹ s⁻¹]
VH 1.2-6GS-VH 1.2 (VHH, It is built here from its name, the (Gly4Ser)n linker definition and the statement that the constructs used carried C-terminal AAA-His6; also called 1.2-6GS-1.2; LAG3 bivalent) EVQLVESGGGVVRPGGSLRLSCAASGFTFDDYGMSWVRQAPGKGLEWVSGIHWNGGSTGYADSVKGRFTISRDNAKNSLYLQMNSLRAEDTALYYCARIPREDCSSASCYTDAIDFWGQGTMVTVSSGGGGSGGGGSGGGGSGGGGSGGGGSGGGGSEVQLVESGGGVVRPGGSLRLSCAASGFTFDDYGMSWVRQAPGKGLEWVSGIHWNGGSTGYADSVKGRFTISRDNAKNSLYLQMNSLRAEDTALYYCARIPREDCSSASCYTDAIDFWGQGTMVTVSSAAAHHHHHH	0.536	0.000148	276000

target: T2, recombinant human LAG-3-Fc; assay: BLI (Octet); human LAG-3-Fc captured on protein G biosensors, 1:1 fit
Protocol: as §1

Binder	Kd [nM]	koff [s⁻¹]	kon [M⁻¹ s⁻¹]
VH 1.2-6GS-VH 1.2 (VHH, It is built here from its name, the (Gly4Ser)n linker definition and the statement that the constructs used carried C-terminal AAA-His6; also called 1.2-6GS-1.2; LAG3 bivalent) EVQLVESGGGVVRPGGSLRLSCAASGFTFDDYGMSWVRQAPGKGLEWVSGIHWNGGSTGYADSVKGRFTISRDNAKNSLYLQMNSLRAEDTALYYCARIPREDCSSASCYTDAIDFWGQGTMVTVSSGGGGSGGGGSGGGGSGGGGSGGGGSGGGGSEVQLVESGGGVVRPGGSLRLSCAASGFTFDDYGMSWVRQAPGKGLEWVSGIHWNGGSTGYADSVKGRFTISRDNAKNSLYLQMNSLRAEDTALYYCARIPREDCSSASCYTDAIDFWGQGTMVTVSSAAAHHHHHH	0.744	0.00112	1.5e+06

target: T2, recombinant human LAG-3-Fc; assay: BLI (Octet); human LAG-3-Fc amine-coupled to biosensor, VH in solution, 1:1 fit
Protocol: Binding kinetics were measured in real-time bio-layer interferometer based biosensor Octet (ForteBio). […] All the binding studies were performed in HBS-ET Octet kinetics buffer. Biosensors were washed in Octet kinetics buffer in between different steps. A seven point, two-fold dilution series of each Humabody® VH was made with a top concentration of 1.6 μM. The contact time for each of the association steps was 150 seconds and the dissociation step was 300-400 seconds. Kinetic association (kₐ) and dissociation (kd) rate constants were determined by processing and fitting the data to a 1:1 binding model using ForteBio Analysis software.

Binder	Kd [nM]	koff [s⁻¹]	kon [M⁻¹ s⁻¹]
VH 1.2 (VHH, Human VH single domain antibody against LAG-3; It is VH 1.1 with S23A, P119Q, N57S and S58T; also called variant 2) VHH: EVQLVESGGGVVRPGGSLRLSCAASGFTFDDYGMSWVRQAPGKGLEWVSGIHWNGGSTGYADSVKGRFTISRDNAKNSLYLQMNSLRAEDTALYYCARIPREDCSSASCYTDAIDFWGQGTMVTVSS	72.1	0.00179	24800
variant 1 of VH 1.1 (VHH) VHH: EVQLVESGGGVVRPGGSLRLSCAASGFTFDDYGMSWVRQAPGKGLEWVSGIHWNGGNSGYADSVKGRFTISRDNAKNSLYLQMNSLRAEDTALYYCARIPREDCSSASCYTDAIDFWGPGTMVTVSS	35.5	0.000912	27000
variant 3 of VH 1.1 (VHH, 4) VHH: EVQLVESGGGVVRPGGSLRLSCAASGFTFDDYGMSWVRQAPGKGLEWVSGIHWNGGSTGYADSVKGRFTISRDNAKNSLYLQMNSLRAEDTALYYCARIPREDCSSASCYTDAIDFWGPGTMVTVSS	34.5	0.000899	26100
variant 4 of VH 1.1 (VHH, 4) VHH: EVQLVESGGGVVRPGGSLRLSCAASGFTFDDYGMSWVRQAPGKGLEWVSGIHWIGGNSGYADSVKGRFTISRDNAKNSLYLQMNSLRAEDTALYYCARIPREDCSSASCYTDAIDFWGPGTMVTVSS	8.41	0.000479	56900
variant 5 of VH 1.1 (VHH, 4) VHH: EVQLVESGGGVVRPGGSLRLSCAASGFTFNDFGMSWVRQAPGKGLEWVSGIHWNGGNTGYADSVKGRFTISRDNAKNSLYLQMNSLRAEDTALYYCARIPREDCSSASCYTDAIDFWGPGTMVTVSS	7.9	0.000517	65500
variant 6 of VH 1.1 (VHH, 4) VHH: EVQLVESGGGVVRPGGSLRLSCAASGFTFDDFGMSWVRQAPGKGLEWVSGIHWNSDITAYADSVKGRFTISRDNAKNSLYLQMNSLRAEDTALYYCARIPREDCSSASCYTDAIDFWGPGTMVTVSS	31.3	0.00343	110000
variant 7 of VH 1.1 (VHH, 4) VHH: EVQLVESGGGVVRPGGSLRLSCAASGFTFDDFGMSWVRQAPGKGLEWVSGIHWNGGNTGYADSVKGRFTISRDNAKNSLYLQMNSLRAEDTALYYCARIPREDCSVAACYTDAIDFWGPGTMVTVSS	35.5	0.000847	23900
variant 8 of VH 1.1 (VHH, 4) VHH: EVQLVESGGGVVRPGGSLRLSCAASGFTFNDYGMSWVRQAPGKGLEWVSGIHWNGGNSGYADSVKGRFTISRDNAKNSLYLQMNSLRAEDTALYYCARIPREDCSSTSCYTDAIDFWGPGTMVTVSS	13	0.00126	96700
variant 9 of VH 1.1 (VHH, 4) VHH: EVQLVESGGGVVRPGGSLRLSCAASGFTFDDYGMSWVRQAPGKGLEWVSGIHWNGDSTGYADSVKGRFTISRDNAKNSLYLQMNSLRAEDTALYHCARIPREDCSSASCYTDAIDFWGPGTMVTVSS	53.2	0.00383	72100
